Molecular target: GI (K607T)-mCherry-CAAX (Arabidopsis thaliana) (UniProt Q9SQI2)
Experiment: cell-based or functional assay

Sequence of UniProt Q9SQI2 (Q9SQI2 other isoform, or with tags, fused parts or gaps K607T K607T): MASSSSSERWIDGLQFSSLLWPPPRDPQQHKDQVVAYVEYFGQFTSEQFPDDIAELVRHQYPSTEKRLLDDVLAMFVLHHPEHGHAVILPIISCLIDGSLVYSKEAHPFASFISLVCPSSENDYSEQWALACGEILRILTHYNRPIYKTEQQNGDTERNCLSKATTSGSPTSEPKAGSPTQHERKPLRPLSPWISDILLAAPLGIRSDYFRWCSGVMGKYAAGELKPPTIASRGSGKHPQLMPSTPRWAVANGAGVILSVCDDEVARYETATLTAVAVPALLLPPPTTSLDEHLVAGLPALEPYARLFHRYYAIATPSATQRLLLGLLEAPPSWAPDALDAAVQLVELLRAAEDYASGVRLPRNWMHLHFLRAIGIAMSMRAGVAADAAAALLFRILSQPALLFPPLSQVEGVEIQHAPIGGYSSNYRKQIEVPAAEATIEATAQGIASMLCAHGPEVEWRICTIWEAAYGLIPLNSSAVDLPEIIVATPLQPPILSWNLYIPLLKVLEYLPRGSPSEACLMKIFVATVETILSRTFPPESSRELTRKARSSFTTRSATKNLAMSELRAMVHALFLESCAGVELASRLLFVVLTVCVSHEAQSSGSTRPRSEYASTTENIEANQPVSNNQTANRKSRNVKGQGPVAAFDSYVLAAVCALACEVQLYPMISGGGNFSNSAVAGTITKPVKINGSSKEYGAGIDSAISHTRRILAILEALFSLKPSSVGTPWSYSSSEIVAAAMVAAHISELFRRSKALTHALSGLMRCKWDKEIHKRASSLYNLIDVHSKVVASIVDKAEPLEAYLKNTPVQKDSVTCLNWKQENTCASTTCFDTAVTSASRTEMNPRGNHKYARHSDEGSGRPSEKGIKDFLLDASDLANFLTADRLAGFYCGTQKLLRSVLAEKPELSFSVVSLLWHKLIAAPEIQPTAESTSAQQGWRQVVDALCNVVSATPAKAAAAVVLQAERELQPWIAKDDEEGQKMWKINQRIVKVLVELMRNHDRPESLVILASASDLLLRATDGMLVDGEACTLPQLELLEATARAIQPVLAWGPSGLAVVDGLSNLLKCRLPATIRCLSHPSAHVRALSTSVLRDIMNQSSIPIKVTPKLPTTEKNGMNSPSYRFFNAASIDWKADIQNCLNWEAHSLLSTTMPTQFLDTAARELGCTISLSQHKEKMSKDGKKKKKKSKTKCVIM

| percentage of cells with lamellipodia, increase upon illumination [%] | Substance |
| --- | --- |
| 46 | NES-FKF1(K15T)-YFP-linker-Rac1ca (FKF1-Rac) WT (from UniProt P63000 1-188) |
| 87 | NES-FKF1(K15T)-YFP-linker-Rac1ca (FKF1-Rac) G128D (from UniProt P63000 1-188) |

— patent US20120237966A1
